Ka and Kd data for five molecules are collected here from article PMC9370705, “Conformational Dynamics of Human ALKBH2 Dioxygenase in the Course of DNA Repair as Revealed by Stopped-Flow Fluorescence Spectroscopy”.

Data set [1] has as its target T1, ALKBH2 (Homo sapiens, UniProt Q6NS38 1-261).
T1 sequence: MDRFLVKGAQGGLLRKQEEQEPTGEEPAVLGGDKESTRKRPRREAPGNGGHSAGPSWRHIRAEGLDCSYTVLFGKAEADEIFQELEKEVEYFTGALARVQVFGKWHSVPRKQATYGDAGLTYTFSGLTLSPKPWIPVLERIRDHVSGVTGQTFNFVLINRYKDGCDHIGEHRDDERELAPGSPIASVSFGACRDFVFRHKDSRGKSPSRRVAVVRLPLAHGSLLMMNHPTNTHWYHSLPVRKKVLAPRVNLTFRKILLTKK
In words: stopped-flow FRET; Fe(II), 2OG; initial complex k1/k-1; 50 mM HEPES-KOH pH 7.5, 50 mM KCl, 10 mM MgCl2, 25 °C (titration, 1 uM enzyme per legend); 2 mM EDTA for apo; stopped-flow buffer not printed in the material. The conditions noted are these: protein: recombinant; (Ni-chelating column); label: 5'-FAM and 3'-BHQ1 on strand 1; blunt.

The target of data set [2] is T1, ALKBH2. The data set is described as follows: stopped-flow FRET; Fe(II), 2OG; overall KaSF (Eq. 1); Table 2 rates give about 2.3e5; 50 mM HEPES-KOH pH 7.5, 50 mM KCl, 10 mM MgCl2, 25 °C (titration, 1 uM enzyme per legend); 2 mM EDTA for apo; stopped-flow buffer not printed in the material. The conditions noted are these: protein: recombinant; (Ni-chelating column); label: 5'-FAM and 3'-BHQ1 on strand 1; blunt.

The target in data set [3] is T1, ALKBH2. The data set is described as follows: stopped-flow εA fluorescence; Fe(II), 2OG; enzyme-product complex after εA repair; 50 mM HEPES-KOH pH 7.5, 50 mM KCl, 10 mM MgCl2, 25 °C (titration, 1 uM enzyme per legend); 2 mM EDTA for apo; stopped-flow buffer not printed in the material. The conditions noted are these: protein: recombinant; (Ni-chelating column); blunt.

The target in data set [4] is T1, ALKBH2. The data set is described as follows: Trp fluorescence titration; Fe(II)/2OG complex per Figure 2 legend (text says ALKBH2); 50 mM HEPES-KOH pH 7.5, 50 mM KCl, 10 mM MgCl2, 25 °C (titration, 1 uM enzyme per legend); 2 mM EDTA for apo; stopped-flow buffer not printed in the material. The conditions noted are these: protein: recombinant; (Ni-chelating column); blunt.

Data set [5] addresses T1, ALKBH2. The data set is described as follows: stopped-flow FRET; Fe(II), 2OG; overall KaSF (Eq. 1); 50 mM HEPES-KOH pH 7.5, 50 mM KCl, 10 mM MgCl2, 25 °C (titration, 1 uM enzyme per legend); 2 mM EDTA for apo; stopped-flow buffer not printed in the material. To be noted: protein: recombinant; (Ni-chelating column); label: 5'-FAM and 3'-BHQ1 on strand 1; blunt.
Data set [6] deals with T1, ALKBH2. The data set is described as follows: stopped-flow fluorescence (FRET/εA); Fe(II), 2OG; overall KaSF (Eq. 1); 50 mM HEPES-KOH pH 7.5, 50 mM KCl, 10 mM MgCl2, 25 °C (titration, 1 uM enzyme per legend); 2 mM EDTA for apo; stopped-flow buffer not printed in the material. To be noted: protein: recombinant; (Ni-chelating column); label: 5'-FAM and 3'-BHQ1 on strand 1; blunt.

Data set [7] concerns the target T1, ALKBH2. In words: stopped-flow FRET; Fe(II), 2OG; enzyme-product complex after εA repair; 50 mM HEPES-KOH pH 7.5, 50 mM KCl, 10 mM MgCl2, 25 °C (titration, 1 uM enzyme per legend); 2 mM EDTA for apo; stopped-flow buffer not printed in the material. The conditions noted are these: protein: recombinant; (Ni-chelating column); label: 5'-FAM and 3'-BHQ1 on strand 1; blunt.

Data set [8] deals with T1, ALKBH2. In words: stopped-flow FRET; Fe(II), 2OG; enzyme-product complex after m1A repair; 50 mM HEPES-KOH pH 7.5, 50 mM KCl, 10 mM MgCl2, 25 °C (titration, 1 uM enzyme per legend); 2 mM EDTA for apo; stopped-flow buffer not printed in the material. To be noted: protein: recombinant; (Ni-chelating column); label: 5'-FAM and 3'-BHQ1 on strand 1; blunt.

B1: m3C_FRET (dsDNA)
DNA 1: ACAGGATCCGGCATA
DNA 2: TATGCCGGATCCTGT
modifications: N3-methylcytosine at position 9 of strand 1
For the molecule B1, the Ka in data set [1] is 230000 M⁻¹; in data set [2], 460000 M⁻¹.

B2: undamaged 15 nt duplex (A instead of m1A); also product A of m1A or εA repair (dsDNA)
DNA 1: ACAGGATCCGGCATA
DNA 2: TATGCCGGATCCTGT
For the molecule B2, the Kd stood at 2.2 ± 0.1 µM in data set [3] and 7.8 ± 1.2 µM in data set [4].

B3: m1A_FRET (dsDNA)
DNA 1: ACAGGATCCGGCATA
DNA 2: TATGCCGGATCCTGT
modifications: N1-methyladenine at position 6 of strand 1
In the case of B3, the Ka in data set [5] was 600000 M⁻¹.

B4: εA_FRET (dsDNA)
DNA 1: ACAGGATCCGGCATA
DNA 2: TATGCCGGATCCTGT
modifications: 1,N6-ethenoadenine at position 6 of strand 1
For B4, the values for the Ka in data set [6] and in data set [1] were 1.9e+06 M⁻¹ and 860000 M⁻¹, respectively.

B5: repaired product of m1A_FRET or εA_FRET (dsDNA)
DNA 1: ACAGGATCCGGCATA
DNA 2: TATGCCGGATCCTGT
Regarding B5, the Kd in data set [7] stood at 0.4 ± 0.01 µM; in data set [8], 1.4 ± 0.2 µM.

Broadly, the Kd is the equilibrium constant for the complex coming apart.
